We go through two molecules from patent US7799901B2, “Modulators of the function of FAS receptors and other proteins” (Yeda Research and Development Co. Ltd., priority 1995, dated 2010).

Experiment [1] deals with T1, MACHα1 (C360S) (Homo sapiens, UniProt Q14790, C360S).
T1 construct: expressed in transfected cells; host or cells: SFY526 yeast
The experiment is described as follows: Two-hybrid β-galactosidase filter assay (FIG. 5), binding to MACHα1 (C360S). As to conditions: two hybrid test. Here is the method: In FIG. 5, there is shown the results of the interaction of MORT-1 and MACH within transfected yeast cells. Briefly, MORT-1 and MACHβ1 and their deletion constructs, as well as MACHα1, a MACHα1 mutant in which the catalytic cysteine Cys360 is replaced by Ser (MACHα1 (C360S)) and the intracellular domain of human FAS-R (Fas-IC), were expressed within transfected SFY526 yeast in Gal4 DNA binding domain and activation domain constructs (pGBT9 and pGAD-GH). Their interaction was assessed by a β-galactosidase expression filter assay as described in Boldin et al (1995b). The results are presented in terms of the time required for the development of strong color. […] None of the inserts examined interacted with a number of tested negative controls, including the intracellular domains of human p55 TNF receptor, p75 TNF receptor and CD40, and lamin, cyclin D and ‘empty’ Gal4 vectors. MACHβ1 was cloned by two hybrid screening of a Gal4 AD-tagged human B cell library (Durfee et al, 1993) for proteins that bind to MORT-1, using the HF7c Yeast reporter strain. Except where otherwise indicated, all experimental procedures for the findings presented are as described above (see also Boldin et al, 1995). […] MACHβ1 also self-associated in the transfected yeast. […] Expression of MACHβ1 molecules in mammalian cells yielded a 34 kDa protein that bound to MORT-1 molecules co-expressed with it. […]

The target of experiment [2] is T2, CD40 (Homo sapiens, UniProt P25942).
T2 construct: human CD40 (CD40-IC, residues 216-277); expressed in transfected cells; host or cells: SFY526 yeast
T2 sequence (P25942 216-277): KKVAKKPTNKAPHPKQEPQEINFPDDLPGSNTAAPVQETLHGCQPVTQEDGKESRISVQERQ
The experiment is described as follows: Two-hybrid test of MORT-1 binding (FIG. 1), CD40. As to conditions: CD40-IC residues 216-277, FIG. 1. From the text:
To isolate proteins interacting with the intracellular domain of the FAS-R, the yeast two-hybrid system was used (Fields and Song, 1989). […] In this system, the genes for the candidate interacting proteins are cloned into separate expression vectors. In one expression vector, the sequence of the one candidate protein is cloned in phase with the sequence of the GAL4 DNA-binding domain to generate a hybrid protein with the GAL4 DNA-binding-domain, and in the other vector, the sequence of the second candidate protein is cloned in phase with the sequence of the GAL4 activation domain to generate a hybrid protein with the GAL4-activation domain. The two hybrid vectors are then co-transformed into a yeast host strain having a lacZ or HIS3 reporter gene under the control of upstream GAL4 binding sites. Only those transformed host cells (cotransformants) in which the two hybrid proteins are expressed and are capable of interacting with each other, will be capable of expressing the reporter gene. In the case of the lacZ reporter gene, host cells expressing this gene will become blue in color when X-gal is added to the cultures. […]
In FIG. 1, there is depicted the interaction of the proteins encoded by the Gal4 DNA binding domain and activation-domain constructs (pGBT9 and pGAD-GH) within transfected SFY526 yeasts as assessed by β-galactosidase expression filter assay. […]

B1: MACHα1 (C360S): MACHα1 mutant in which the catalytic cysteine Cys360 is replaced by Ser (protein)
chain: MDFSRNLYDIGEQLDSEDLASLKFLSLDYIPQRKQEPIKDALMLFQRLQEKRMLEESNLSFLKELLFRINRLDLLITYLNTRKEEMERELQTPGRAQISAYRVMLYQISEEVSRSELRSFKFLLQEEISKCKLDDDMNLLDIFIEMEKRVILGEGKLDILKRVCAQINKSLLKIINDYEEFSKERSSSLEGSPDEFSNGEELCGVMTISDSPREQDSESQTLDKVYQMKSKPRGYCLIINNHNFAKAREKVPKLHSIRDRNGTHLDAGALTTTFEELHFEIKPHDDCTVEQIYEILKIYQLMDHSNMDCFICCILSHGDKGIIYGTDGQEAPIYELTSQFTGLKCPSLAGKPKVFFIQASQGDNYQKGIPVETDSEEQPYLEMDLSSPQTRYIPDEADFLLGMATVNNCVSYRNPAEGTWYIQSLCQSLRERCPRGDDILTILTEVNYEVSNKDDKKNMGKQMPQPTFTLRKKLVFPSD
Take B1: the “binding to MACHα1 (C360S) in transfected yeast” value in experiment [1] was “bound”.

B2: MORT-1: Mediator of Receptor-induced Toxicity; protein binding the intracellular domain of FAS-R, SEQ ID NO:2 (protein)
chain: VNQAPECRFGGGILGPLGKRRDLARASEPRTEGARRAGPQPRPLADPAMDPFLVLLHSVSSSLSSSELTELKFLCLGRVVKRKLERVQSGLDLFSMLLEQNDLEPGHTELLRELLASLRRHDLLRRVDDFEAGAAAGAAPGEEDLCAAFNVICDNVGKDWRRLARQLKVSDTKIDSIEDRYPRNLTERVRESLRIWKNTEKENATVAHLVGALRSCQMNLVADLVQEVQQARDLQNRSGAMSPMSWNSDASTSEAS
Take B2: the “binding to CD40 in two-hybrid test” value in experiment [2] is recorded as “not”.
